Consider eight molecules from patent US20210355194A1.

This experiment concerns the target COVID S1 RBD Fc fusion (Antigen 1) (SARS-CoV-2), P0DTC2. Description: phage ELISA. Particulars: remark: other sources report otherwise. A general note: An ELISA detects its analyte on a solid surface through an enzyme-linked reagent.

B1: SARS-CoV-2 variant 1-4 (antibody)
chain 1: EVQLLESGGGLVQPGGSLRLSCAASGFTFSSQAMSWVRQAPGKGLEWVSAISGSGGGTYYADSVKGRFTISRDNSKNTLYLQMNSLRAEDTAVYYCAKDRRFGEFDPWGQGTLVTVSS
chain 2: QSALTQPASVSGSPGQSITISCTGTSSDVGTYNLVSWYQQHPGKAPKLMIYEGSQRPSGVSNRFSGSKSGNTASLTISGLQAEDEADYYCCSYAGSSSFVVFGGGTKLTVL
Consider B1, for which the ELISA fold over background amounted to 1.4 fold.

B2: SARS-CoV-2 variant 1-5 (antibody)
chain 1: EVQLLESGGGLVQPGGSLRLSCAASGFTFSSQAMSWVRQAPGKGLEWVSAISGSGGGTYYADSVKGRFTISRDNSKNTLYLQMNSLRAEDTAVYYCAKDRRFGEFDPWGQGTLVTVSS
chain 2: QSALTQPASVSGSPGQSITISCTGTSSGVGSYNLVSWYQQHPGKAPKLMIYEASKRPSGVSNRFSGSKSGNTASLTISGLQAEDEADYYCCSYAGSYTFAVFGGGTKLTVL
B2: the ELISA fold over background stood at 1.6 fold.

B3: SARS-CoV-2 variant 1-28 (antibody)
chain 1: EVQLLESGGGLVQPGGSLRLSCAASGFTFSSYGMSWVRQAPGKGLEWVSAISGSGGGTYYADSVKGRFTISRDNSKNTLYLQMNSLRAEDTAVYYCASSSSWQFDYWGQGTLVTVSS
chain 2: QSALTQPASVSGSPGQSITISCTGTSSGVGSYNLVSWYQQHPGKAPKLMIYEGSQRPSGVSNRFSGSKSGNTASLTISGLQAEDEADYYCCSYAGSSTHYVFGGGTKLTVL
Consider B3, for which the ELISA fold over background is 1.1 fold.

B4: SARS-CoV-2 variant 1-31 (antibody)
chain 1: EVQLLESGGGLVQPGGSLRLSCAASGFTFSSYAMNWVRQAPGKGLEWVSAISGSGGSTFYADSVKGRFTISRDNSKNTLYLQMNSLRAEDTAVYYCTRPPYGDYGDYWGQGTLVTVSS
chain 2: QSALTQPASVSGSPGQSITISCTGTSSDVGKYNLVSWYQQHPGKAPKLMIYEGSQRPSGVSNRFSGSKSGNTASLTISGLQAEDEADYYCCSYAGSRTPVVFGGGTKLTVL
Consider B4, for which the ELISA fold over background was determined as 1.3 fold.

B5: SARS-CoV-2 variant 1-30 (antibody)
chain 1: EVQLLESGGGLVQPGGSLRLSCAASGFTFSSYAMTWVRQAPGKGLEWVSAISGSGGSTFYADSVKGRFTISRDNSKNTLYLQMNSLRAEDTAVYYCTRPPYGDYGDYWGQGTLVTVSS
chain 2: QSALTQPASVSGSPGQSITISCTGTSRDVGSYNLVSWYQQHPGKAPKLMIYEGTKRPSGVSNRFSGSKSGNTASLTISGLQAEDEADYYCCSYAGSRTPVVFGGGTKLTVL
For B5, the ELISA fold over background amounted to 1.7 fold.

B6: SARS-CoV-2 variant 1-3 (antibody)
chain 1: EVQLLESGGGLVQPGGSLRLSCAASGFTFSSQAMSWVRQAPGKGLEWVSAISGSGGGTYYADSVKGRFTISRDNSKNTLYLQMNSLRAEDTAVYYCAKDRRFGEFDPWGQGTLVTVSS
chain 2: QSALTQPASVSGSPGQSITISCTGISSDVGSYNLVSWYQQHPGKAPKLMIYEGTKRPSGVSNRFSGSKSGNTASLTISGLQAEDEADYYCCSYAGSSSFVVFGGGTKLTVL
As for B6, the ELISA fold over background stood at 1.8 fold.

B7: SARS-CoV-2 variant 1-49 (antibody)
chain 1: EVQLLESGGGLVQPGGSLRLSCAASGFTFSSYAMYWVRQAPGKGLEWVSAISGSAGSTYYADSVKGRFTISRDNSKNTLYLQMNSLRAEDTAVYYCARDTNDFWGQGTLVTVSS
chain 2: QSALTQPASVSGSPGQSITISCTGTSSDIGSYNLVSWYQQHPGKAPKLMIYEGTKRPSGVSNRFSGSKSGNTASLTISGLQAEDEADYYCCSYAGSRTYVFGGGTKLTVL
Regarding B7, the ELISA fold over background came to 1 fold.

B8: SARS-CoV-2 variant 1-32 (antibody)
chain 1: EVQLLESGGGLVQPGGSLRLSCAASGFTFSSYAMYWVRQAPGKGLEWVSAISGSGGSTFYADSVKGRFTISRDNSKNTLYLQMNSLRAEDTAVYYCTRPPYGDYGDYWGQGTLVTVSS
chain 2: QSALTQPASVSGSPGQSITISCTGTSSDVGGYNLVSWYQQHPGKAPKLMIYEGNKRPSGVSNRFSGSKSGNTASLTISGLQAEDEADYYCCSYAGSSTFPVVFGGGTKLTVL
As for B8, the ELISA fold over background was found to be 1.5 fold.
